The data set deals with NF-kB p50 (recombinant, Promega) (UniProt P19838 1-433). Briefly: EMSA; LightShift EMSA kit binding buffer, 1 ug poly(dI-dC), 30 fmol biotin probe, 20 ul, room temperature 20 min; 7.5% PAGE in 0.25x TBE; salt and pH not stated. The note with it: protein: commercial; chain copies: 2; label: 5'-biotin; blunt. A general note: In EMSA bound probe runs differently from free probe, usually more slowly.
Chain of NF-kB p50 (recombinant, Promega) (P19838 1-433): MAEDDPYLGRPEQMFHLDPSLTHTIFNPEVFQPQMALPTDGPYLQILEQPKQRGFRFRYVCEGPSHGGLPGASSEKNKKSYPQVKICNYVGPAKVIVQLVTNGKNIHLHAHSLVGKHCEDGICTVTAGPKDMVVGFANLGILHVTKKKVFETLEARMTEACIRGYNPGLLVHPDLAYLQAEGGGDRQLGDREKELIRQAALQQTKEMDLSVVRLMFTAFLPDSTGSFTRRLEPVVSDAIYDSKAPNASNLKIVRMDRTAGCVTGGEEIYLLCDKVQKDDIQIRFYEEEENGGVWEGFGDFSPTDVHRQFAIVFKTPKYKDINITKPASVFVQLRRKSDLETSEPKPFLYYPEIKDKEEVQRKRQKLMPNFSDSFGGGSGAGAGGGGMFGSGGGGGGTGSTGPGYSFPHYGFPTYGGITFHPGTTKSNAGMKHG

B1: wt huPIK3CA NF-kB probe (dsDNA)
DNA 1: GACGTGGGGGATTTTTCGCGTA
DNA 2: TACGCGAAAAATCCCCCACGTC
For the molecule B1, the binding result is “binds”.

Source of the values: paper PMC2258145, “Transcriptional Regulation of PIK3CA Oncogene by NF-κB in Ovarian Cancer Microenvironment”.
